# Results published in the DeepSol protein solubility set.
# Test: soluble on expression in E. coli; label from the status in PepcDB or PDB records
row,Sequence,soluble on expression in E. coli
1,MAHHHHHHMRTSAAVLSLFRGQRRLSCTMTAPLATRRFCRSTGDGLQKDWRPLSTTPHQPGPDTPASPSSSKSSANLDACEGALRAAPEGPASSKRGSSFASLALQRGSGEKANRMDRTAGLYKHTIVTETDKAPTGVARSATASSVSTGAGLTAERKKYATIPLRHCGTRAEPGNGSRSASSPPSASNSKREMTAQTEAPKTIKTAARPQDGPMVPDYGPLRATGLWSVEEVLDESKKTVDFRRIDDVESEIIEDHTNAEEALVPYAEEEAWKHKLMFEYKFKKTPKHLTWKEMGEEIECMDCVIELDEHRPEELFTIFFYFTDKKTGTRDLVWSARNDVSYSEGFTDLLAAIGACLGRSDVHRTIRFDDGVGCTRDLTFRKRSRYTSDVYVAFRPPEKYDKFQRKEEKDEYEASMEREGMSTWGYHPSLMDPEFSELDFKDPEGTYEVAISAHGFSFVVLRAIGRLLARPMKDFYRPSQLMRTAKVRTEDEIGFTHALKGWLGVDEQLYPHYTPIEALQDHWLGKDAPFSLCAIVNKLREMNYLKKENPEFQSWLSVRSHDTHLAIRNMGVKLLGVGASTLFVPVSHNATVNRLLPKPQQRRLESRFSLNAVLGLPDETRKLKDFKQITGHDRITDVPTSSTRETATIASPAQDEASVKNSPT,not soluble
2,EKTEQEQILIPVANPDTIEDLINLALVIRDTKQKKELIALNVINDNNNSENKELQGKRNLEKAAMIAASADVSVNMVSRYDLNIASGIIHTIKEYDATDVVIGLHRKANIVDSFFGNLAESLLKGTHREVIIAKFLMPVN,not soluble
3,MSLITIGITGGIGSGKSVVSRILLTLGIPVYDSDSRAKWLNDHSPVVRQALTGLIGSDLYENGILRRDRLAAAIFSSGDLLEQVNGIIHPEVKKDFCQWRSECESDLCAIESAILFSSGFNSLCDTVIRVDAPEKIRQERAMARDGSSAETMRQRMLSQEREQSLAKAGADHTVLNAPPHLLVPQVVRIIETVRTKRPNPPDEGHHHHHH,soluble
4,MGSDKIHHHHHHMPTLKEKIIQESQRLGIDKIGFTHAEPFIELEDSLHEQRERGYNSGFEHQNVEERIYPEKTFEHPKSIISIALAYPTKAQEKMPRDEKRGQFARASWGIDYHHILQDRLQKLIAFIEEQAATEAEKEHWRFRPQVDTGEYVDTAVAQRAGLGFIGKNGLLITEEFGSFVYLGEVTTNIQFEPDEPVPNGCGDCTRCITGCPTGALLGDGRMNAQKCLSYQTQTKGMMPEDYRKKMRNVIYGCDICQLVCPYNKGKDFHFHEEMEPKIEEVYPKLAPLLTISNKEFKQQFGHLAGSWRGKKPLQRNALIALANLGGREAIPQIILCLNDQRPVIRGTAAWSLGQLAKREPEQSLEALNYLLSVETEEEVIEEAQKAIHLLTSKKGSRSTE,not soluble
5,MKTKNEPKVILELAKESDLPEFQKKLQEAFAIAVIETFGDCEDGPIPSDNDVQESFNAPGAVVYHILQDGKNVGGAVVRINSQTNHNSLDLFYVSPEYHSQGIGLSAWKAIEAQYPDTVLWETVTPYFEKRNINFYVNKCGFHIVEFYNEHHSNPHMHRNGREDDKPLLNDDDFFRFVKIMKKKD,not soluble
6,MSSLHLDALHWSPDASTELLRGVHLEVPAGSFVGLIGPNGSGKTSLLRCAFRYARPQRGRVVLDGDDLWRQPPRWAARRIAVVLQEFPEDFGLAVEDVVAMGRTPHKGLFDGHGADDRQRVRQALLQVGLEGRAASPFASLSGGEKQRALLARALVQEPRLLILDEPTNHLDPRYQLELLRLLRSLGLSTLASFHDLNLAAAFCDRLYVLDGGRIVAQGTPTEVLDADLLWRVFGVRALVDRHPLADHPR,not soluble
7,MKFGTVWKYYFTESLLKATIRTPSQLNLAPNALRPVLDQLCRLFPQNPTVQIRPIRLAGVRGEEIKAQASATQLIFHIHGGAFFLGSLNTHRALMTDLAARTQMQVIHVDYPLAPEHPYPEAIDAIFDVYQALLVQGIKPKDIIISGDSCGANLALALCLRLKQQPELMPSGLILMSPYLDLTLTSESLRFNQKHDALLSIEALQAGIKHYLTDDIQPGDPRVSPLFDDLDGLPPTLVQVGSKEILLDDSKRFREKAEQADVKVHFKLYTGMWHNFQMFNAWFPEAKQALADIAEFAHSLDLD,soluble
8,MGSDKIHHHHHHMILMKSYYRLLGHYYLLLRFFKNLRDLGVSLLELENILGVIYWYLFKQKYSTRCRCCSELYINQTNINPYYFASACKLKKMGLPVEIRNSVFYYDGLEVYPTVIPYIARVIKYNWQVFNMKGNPMISFTVKNHDFKAVLLKGYEGLLQFYEQFILEQYGMFDYKDKTVIDIGGFIGDTALYFYSKEARKIVSFEPSKKNYTILIKNITLNNIKNVIPINAGVWDENTKGIITNPAPTAYRVKEESKGDVALVSILDIIDSYRPDIIKMDCEGCEYKVFEKLLETGYIYDVPEYVFEAHGNIKNELLSKLRSLDEFRLCVHSDLGNMAIVSLKKL,not soluble
9,MSLKILILGGTRFLGRAFVEKALNRGYEVTLFNRGTNKEIFPEVEQLIGDRNGDVSSLENRKWDVVVDTCGFSPHHIRNVGEVLKDNIEHYIFISSLSVYKDWIPHHIKEDYILQPEPTAEQIKAVENGEVSPYEYYGALKVLCEKEAEKYWPGRVLHVRAGLLSGMFDYTDRLPYWIGRVAKGGEVLVPGRKDRPVQIVDIKDVANWGLNMAENNKAGIFNVTGPNYDLTMEELLNTCKKVTNSDAEFVWIEESFMNEHKVQPWTEMPLWIPETFSLEGETKPWKGGFSISINSAIKAGLTFRRLEDTVMDVYVWMKSIEEWELKAGISGEREKELLEKWYQEGHHHHHH,soluble
10,AHHHHHHGSHKLKVSVSFSYGKKEIVKNVEFEGKVGEIIAIIGPNGAGKSTLLKCIAGILKPRGIIEYNGIDLTKLKPKERAKIVGYVPQSSYPEFAFTVEEFVELGTYAGKGDVDEAIRRVGLWEKRKEFITNLSGGEYQLTLIARALAQGGDIMLLDEPTSHLDINHTREIMEILQELKKEKLIIAVFHDLNLAINYADEIIVLKNGETAWKGKSKEISEEVIEATYGIKPRIVREDGIVAVLP,soluble
11,MSLAACSGGGNSSQGSGGSKFAFWDMPWGSPGPDYLAAGKEISAAFSGGSATYQSISWDGWLQTFSSAIAAGTGPAISTGGAFQSLQYYVQDAVHPADGVIAKLRSKGQLDDFLPGTLDVFKYKGAYTALPWNVDSRLLWYRKSLLEKAGVEEPRSWDDLYRVGVALKKNDVYGMVASGGAGGNAYQTFLSFVFNNGGGLFDKDGEPQCVTDANVEAVEFLMKLAKDGIMDPGSVSYTVANLNDQFSSGAAALSILPPDIANSFEDPRLKADITLGSPLTSPNGTKGTMAYTSDLILYTGDWDTDVVEDFAVYYLDAMSAYWKKGVLNKVPVRQSILDLPEVQAQPNLVKATKEWLPVGKSLTQLAGEPFPEINAVDGGQAITQWAQQVIQAKSSGEQTLRTLQDGIEKVMEGHHHITTDPNSSSVDKLAAALEHHHHHH,soluble
12,MLGGYAHRIARIDLSTGQVEYFAPDPKDLEMYVGGRGLGVKYVFENGPQVDPLGPENLLCIMNGPLSGTRAKMSGRLAVVTKSPLTGTVTDSHMGGWTAAKLKWAGFDGLLIKGASEKPVYLLVKDGEVSIHDASDLWGKTTHETCRILRERHGEEADVMAIGPAGENLVRFANWINNDERAAGRGGTGAVAGSKKLKAIVVVGTHDKMPQPKDPELWKEADRLASATINDPKNVTAPKKGGLSLYGTNVLMNITNVMGALPTFNAQHTCIEGAEKISGEYIREHRLIKDNTCHACPVACKKMVEVHINGKTIRFESYEYESAWALGAHSGHTDTDWTGYAIYLCNAYGMDTIEAGNAIAVLMEATEKGYYQGEDGIRFGDKEGEIRVLEAIAYRKGVGDMLAEGPARFAKAIGHPEIALEVKGQSIPAYDPRGLKGMGIAYATSNRGACHLRAYTPASEILGVPYKTDPLAWEGKGKLTKLFQDLSAFTDSLDLCKFSQFAEGPEEYAKQLAAYWGRPVTPEEILRIGERIYNLERYYNNLAGWGEGSDYLPERFLKEPSDCAGSKGQVTELDRMLEEYYRERGWERGVVPPAKLQELGILSQAADD,soluble
13,MGSDKIHHHHHHMTCKRALTAYPELLSRTVAAPSWVMPGTVRDNAIFLSGEVDEVGLCFFETAACLAYGENDLPEHLADLPLGWHVHLPGDLPWCDGGAEAAVPALRLMDKVAFLGAHRAVLHPPVGFADGAARLVAFVRAWEAAGRNPEDLCLENIRGEDLTGLWRTLCDLGCKVCLDMGHVLSYGQYGLLSLPGLSGRTSMLHANAPGPAGRHLSLDTLDGAGGGVGRAMCALLPDDAVVMVEVFDWEGVRRSLPLLETWFAAQR,not soluble
14,MHENKYLTIYHDLISRIRRGEWKAYDKLPSEHELAARYETSRETIRKALHLLSEHGYIQKMKGKGSIVLDVGKYDFPVSGLVSFKELAQTMKQPVRTIVHELAIIKPDRELRQHLRASSKDEVWKVVRVREIGGERIILDKDFFLKKHVPLLTKEICEDSIYEYLETKLHLPISFAKKEISVDEATDEDRRYLDLHGDDRVVVVKNYVYLSDAALFQYTESRHRLDKFRFVDFARRK,not soluble
15,MGSDKIHHHHHHMKGSTDLESRLPSAGAYGDRFASYFKLAKASVFKTGSLRTGEIAYTETSGYCHKPEPSVPVPPEDAFLVQTQLQDYPNHISWEDGRPGIVGTLRAGHTILRDLQRKPNAIIMGPHHTVHFYIPRATFNTVAEDLEARSISELAYVPAQPIDDDVIRGLIGTVRAAIKAPEETNRLFLDHLMMAAAVHLAQTYGGLKPRSLQHRGGLAPWQARLAIELLEGDLTGQLPLKDVAAACKLSVSYFSKAFCKTTGLAPHQWLLYRRVERAKSAMINEKTTLAEVALSCGFSDQSHFTRVFVRLVGTSPATWRRARNL,not soluble
16,SNAMSMAYEEYMRQLVVPMRRELTGAGFEELTTAEEVENFMEKAEGTTLVVVNSVCGCAAGLARPAATQAVLQNDKTPDNTVTVFAGQDKEATAKMREYFTGAAPSSPSMALLKGKEVVHFIPRHEIEGHDMEEIMKNLTAAFDAHC,soluble
17,MSSVLDVTKPDFDVEAFVVKLLREKSLDGLVKEEEEMVSAVRRLDSDVHQIVYENYNKFLTATNTVRKIQDEFTQLDSEMKSLSRSMSTISTLIGNLDGVLGEKRDDILQLGSSYKVVNSLKHIFDLPHVLRSEFDERNYGEVLRMFKLAEESLSQYKDVPTVQLVLQKSKKIYDMTENQLMDQLRNPASGAELVSEAVDLLLTIGRDEDEVQKVLLTCSEQSLRVDLKELSANHSDVLDLVDKASESFIPNLTLIATTHDRLFEDKREDLITVLKTEMNSLHALVSKVFLSSSDAKDCSIVVRALDRYFRKISTCRYVIPGLDFLPLTIELINAVSKHEIDLSLTRIKEELKNGLNEVRKALINEEKDLSALASKIEQVFVHQVKTALANLLLFTASDVTFANLPPDEFRQSFSFNAHERLLVQAFHRFSELADEYESGAGEIRFVDPRVHLVFAVALQHLSNKSAVYLLNLCREQFSLSPDDGLTDITVVMSEVKTRAQKLVRCYAEKTGLSMGETLIKGCAMLVQPAATPSAVRASVRRLVEEMNTCDSELTLLLGGDSKPKDSRVSRRPITTALDAARDSLWCERIDFHLQIHFNRASIITVIVKVVLKIFIESIRLQTYSKFGVEQVQVDCYYLQRCLAALVSDEVVVNSMVDQALSSALKRCQDPVLVHPSRLAQLCEQPPANRPSSQASSLGY,not soluble
18,GLEVTVWNRSAAACEPLVALGAARAEEVGELFGLDVVISMLADDQAIRGVLLDSGALERARPGLIHLSMSTLSLDCVEALDQAHQRQGLAFVAAPVFGRTDVAEAGKLNIVVGGPEEAIEQVKALLEIMGQKTWFFGKDPRGAMAVKISGNFMIASAIESMGESVALVKRLGVEPGRFMELMSSTLFDAPVYRNYGPQIVEQRFTPARFRLVLGLKDVDLALSAGKRHNVPLPLASLLHDVLLEAIAHGDGESDWTALAKVALSRSGQI,not soluble
19,MDPALAAQMSEAVAEKMLQYRRDTAGWKICREGNGVSVSWRPSVEFPGNLYRGEGIVYGTLEEVWDCVKPAVGGLRVKWDENVTGFEIIQSITDTLCVSRTSTPSAAMKLISPRDFVDLVLVKRYEDGTISSNATHVEHPLCPPKPGFVRGFNHPCGCFCEPLPGEPTKTNLVTFFHTDLSGYLPQNVVDSFFPRSMTRFYANLQKAVKQFHE,soluble
